Source: publication PMC12549891

Target: human olfactory CNGA2/A4/B1b heterotetrameric channel (human) (UniProt Q16280)
Sequence (Q16280 whole entry, chain 1 of 3): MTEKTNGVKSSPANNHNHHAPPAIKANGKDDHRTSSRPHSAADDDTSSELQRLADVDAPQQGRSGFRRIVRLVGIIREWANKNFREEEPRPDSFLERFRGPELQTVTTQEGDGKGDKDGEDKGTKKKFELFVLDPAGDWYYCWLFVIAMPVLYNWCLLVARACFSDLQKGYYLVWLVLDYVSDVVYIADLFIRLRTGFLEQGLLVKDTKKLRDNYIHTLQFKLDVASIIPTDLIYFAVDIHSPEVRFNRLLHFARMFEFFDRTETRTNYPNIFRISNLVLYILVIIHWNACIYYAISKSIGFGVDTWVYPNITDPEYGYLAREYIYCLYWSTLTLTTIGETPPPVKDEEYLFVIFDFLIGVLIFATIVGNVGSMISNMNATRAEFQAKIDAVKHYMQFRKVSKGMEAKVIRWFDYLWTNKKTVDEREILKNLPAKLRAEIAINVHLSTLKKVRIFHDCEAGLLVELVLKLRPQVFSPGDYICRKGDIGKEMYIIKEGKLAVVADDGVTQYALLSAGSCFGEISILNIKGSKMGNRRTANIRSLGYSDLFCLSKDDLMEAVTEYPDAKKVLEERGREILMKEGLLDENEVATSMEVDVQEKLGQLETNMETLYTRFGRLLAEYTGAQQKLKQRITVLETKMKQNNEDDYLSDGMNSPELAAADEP
Sequence (Q8IV77 whole entry, chain 2 of 3, further chain): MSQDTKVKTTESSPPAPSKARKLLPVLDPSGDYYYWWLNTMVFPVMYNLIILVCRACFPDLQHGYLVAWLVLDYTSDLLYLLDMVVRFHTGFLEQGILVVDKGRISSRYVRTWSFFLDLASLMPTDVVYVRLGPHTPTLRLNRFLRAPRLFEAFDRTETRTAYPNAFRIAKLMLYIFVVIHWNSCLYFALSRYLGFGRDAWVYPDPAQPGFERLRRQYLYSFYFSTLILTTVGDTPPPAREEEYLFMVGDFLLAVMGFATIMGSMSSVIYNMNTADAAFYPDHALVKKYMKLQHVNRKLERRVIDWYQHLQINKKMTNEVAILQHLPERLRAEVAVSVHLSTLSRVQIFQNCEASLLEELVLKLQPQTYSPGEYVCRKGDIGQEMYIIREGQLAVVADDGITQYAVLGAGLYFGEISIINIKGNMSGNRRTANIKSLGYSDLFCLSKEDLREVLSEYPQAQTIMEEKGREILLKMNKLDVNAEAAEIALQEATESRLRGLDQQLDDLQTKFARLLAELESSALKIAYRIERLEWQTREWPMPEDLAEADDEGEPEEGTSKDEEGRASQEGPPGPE
Sequence (Q14028 456-1251, chain 3 of 3, further chain): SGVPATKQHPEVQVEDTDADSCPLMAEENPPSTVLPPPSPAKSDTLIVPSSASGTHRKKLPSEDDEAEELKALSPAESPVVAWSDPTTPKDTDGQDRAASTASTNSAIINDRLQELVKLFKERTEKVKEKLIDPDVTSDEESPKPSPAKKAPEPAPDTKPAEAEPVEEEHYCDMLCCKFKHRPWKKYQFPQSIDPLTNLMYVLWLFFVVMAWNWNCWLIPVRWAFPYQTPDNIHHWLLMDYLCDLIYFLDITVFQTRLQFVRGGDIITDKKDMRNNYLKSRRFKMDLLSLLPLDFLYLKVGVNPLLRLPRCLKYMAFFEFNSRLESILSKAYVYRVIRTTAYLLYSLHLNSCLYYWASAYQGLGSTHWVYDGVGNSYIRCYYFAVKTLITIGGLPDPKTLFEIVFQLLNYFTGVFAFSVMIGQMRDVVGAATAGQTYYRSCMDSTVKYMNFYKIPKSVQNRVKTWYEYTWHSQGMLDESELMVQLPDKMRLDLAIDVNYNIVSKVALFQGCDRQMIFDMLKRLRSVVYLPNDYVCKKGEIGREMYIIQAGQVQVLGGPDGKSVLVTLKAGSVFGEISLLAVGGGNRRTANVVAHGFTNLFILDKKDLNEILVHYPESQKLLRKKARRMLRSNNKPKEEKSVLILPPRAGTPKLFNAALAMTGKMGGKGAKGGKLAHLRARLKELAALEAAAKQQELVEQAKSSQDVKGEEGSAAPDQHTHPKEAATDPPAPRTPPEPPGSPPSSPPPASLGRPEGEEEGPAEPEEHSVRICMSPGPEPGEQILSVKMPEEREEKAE

time of washout with EGTA-containing bath solution needed to remove the bound (endogenous) CaM from the channel in excised patches: 10 min
Substance: human calmodulin (from UniProt P0DP23 1-149) (natural protein)
